Test results taken from the NTF2 design screens of Basanta et al. (2020).

Experiment: protease stability score; higher = more stable; yeast display proteolysis, trypsin and chymotrypsin;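 also: relative to predicted unfolded state with 0 unfolded-like and 1 meaning tenfold more protease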
“DEDEHNVREFIERIMRILETGDEHDFKRMADPDVRFEIGDKLIHGMETWSEIHTDELKRIPNLKIQLRIHDVHAYNGRAHVHSHFVIEFDGKRHIIETEMFIIKINGQWHLRSIKYK” showed a protease stability score of 1.46.
In the case of “DEEERLLLEWVRLFLTAWETGDEKLQEKLMDPHARTDFNGVQLHGREEYSRFLSQLRIRRFHVRDESIRIVGNKAESEVDGEVEGEVNGQRFKQHTEIEIHSEKINGRWLWKSLTIRIK”, the protease stability score was 1.5.
“REENEMLKRAIKHILRVLETGDFEDLSKMFDPHARLFFNGVLFMGRENVEHHWERERERYKNLRLHFRHVNYHVQGDKVFVEYHVDVTVGDKKWEVHFHFIVIKINGQWYNEDLEIEIR” showed a protease stability score of 1.66.
With “SEEDELDERLLKIMRHAFETGDEEIFMRLVDPHTRTEFNGQEVHGREHLHRWLKEILRTLGVKYVERKDIRAWDGRIHLEFEMHVNGRTLKLTVVVIFINGKLHEYSERIE” the protease stability score was 1.61.
Work on “TEDEKMAEDLLKLILEAMETGDERIFRHLVDPNVRVSQGEKQLHGREAVEEMLKHLRLHRVRIRDVHVVGDKIIVQGEIHGEIGDFRFESHIIVYIHKFNGQWRHKSIEIK” yielded a protease stability score of 1.42.
Sequence “DERERDARIYFHLLLHVIMTGNEEDLERFMDPHARIQIGDKMVHGRENVYHELLRIAREMRLHHSHIHEIRVIDGRVILKGHLDLEVGDKRELVDVEWIVIKVNGKWIFHSVHFR” has a protease stability score of 2.53.
“SEEDSKAMEMLDEWLKWLLTGNEHIFRTLADPHVRLTIGDKEHVGREHVIRMFHELRIDHFHVHDVRTQGDKAFMSGRMEGTVDGKKEDTDIRIFLVIVNGRIKHIELRIH” gave a protease stability score of 1.52.
For “DDIEEILKEAFERLIHDLRTGNEDNLRSLIDPNVRLNWNGQELHGREHVLELLTRIKNLRIEDWTTKDQRYQGDKIEMDGILHTRIGDKEIHLETHIHVRKVDGRWKIEQLDFR”, the protease stability score was 2.
With “SEHEHMIQVALELWLHTLHTGDEHKEERLHDPHARLRIGDKELHGREDVIRWMRKVKNVTINRVEVRRINFQGDKAILLVRIDGEFDGRRIDTEVIIIVVKVDGRWLFESMEID” the protease stability score was 1.31.
“THLHDQVHKAVEDVERDLMTGNEERLYKLLDPNVRIEYNGQDLHGREIAIHFLIRISNHWRFEDLHIESMNVQGNKATIHSRYVRHIGDKREETHVHLYMVKINGQWFIHSMSFS” gave a protease stability score of 2.25.
In the case of “DKEEEKSREFFRIFYELWLTGNEELNERLADPNVYVDINGQEIHGMHVAKNVLTRELEELRVKDIKIDDYKTQGEKAVFHGKWEGYVDGRDSMEHVTVILTVVDGKVDNMSIKFD”, the protease stability score was 0.97.
For “DEDEKESKEAIEISFRLWRTGNEEEIHNYADPRARLEVFINGRLIQRHGREDFSRFMNEQLKRLGIDHIHIERLEIQGEKVIVDIHITVNGQHFRLHQDARKVDGRWIIHDVKINLL”, the protease stability score was 2.65.
“SEHDKEMREWIKTLFELMYTGDWVILRELADPNAKFRQGDFTKIGREQYERHVRRHLDLLGHDNIEIHWEDVEIVGNYAVFHGHLTFNGKSTHVIIRVFVIDGRMKHEHVEIK” gave a protease stability score of 1.3.
Work on “SEDEKIHREMSKIMLEDLFTGDWKSLRDLVDPNVRIIVDGREFHGREYYSRELIEELLKFKNARFDIEHVELRIYDGRLRTLIHMRVNIDGVEHWVIVEVDFTKIDGRWYVEEIRVEVR” yielded a protease stability score of 1.33.
With “DERTKQFNELLHIFIRDLHTGDEESHERMMDPNVRTEVGEFRMHGRENVRHWWHEWLRLLGLDRIEVRVRDHHVIDGRLRIDVELKQGDKNIDTHVILVVINGRMHSQRYEFH” the protease stability score was 0.717.
With “DEDEESSESFYRLWVELFETGNFEILERLFDPHVRIKIGDKHIHGMEEHIRESFHIIERFKGVQIRVDEVRLFDGRMDVHGELIINGQSVRMRIIVRKVNGRWHLTEMILD” the protease stability score was 1.48.
Work on “TEEDEMVHRQTEILEESIVTGDWKTLRNFVDPNMRLEIGDKTVHGWHAMSHILRRIDHINSVELHKVEVYGEKVHVDTIVDGIVDGRRTHLRTHIIALKFNGRWILTSNKIE” yielded a protease stability score of 1.03.
With “DEEDKHADWIMKQMVDLWTTGDEETSITLLDPNVKLHVDGRDIHGREKAMEWLRRFIVHLRIEIIIRHFDFQGNFARFHGELEIRIGDKSQVLETRLEIIVVNGKFRILEIELR” the protease stability score was 2.71.
For “DDDEHDTEKLLTFYSHAERTGDEELLRHLFDPDVKLYIGDKLFIGWRLFKERFRRWVEELGINHIEVHLHRYRIQGDKIDMDTRLELRYDGRTEHVESHVIVRKVDGRWNFERMHFN”, the protease stability score was 0.745.
Sequence “DEIDEISKQMVRDFVHSWRTGDWKVLRELADPHALIIFNGREFHGWEHILRVFLELIRRYKNARVDIEEVIVQGDKIHIHLRIDQGDKSHTVNIHIDIIDGKLKRLEIDVT” has a protease stability score of 2.27.
Work on “DEDEKEATHWWRLLIKNIETGDEKSEKELLDPHARVEIGEFESVGRETVAEMWFRLMEHIRLKDSHEKDFDMQGDYMHVNGHVVGEYNGKHIKSDVRIILIVIDGRVKEVTVKIH” yielded a protease stability score of 0.208.
With “DEEEHRVENMYHRWLHLWETGNEERLTELLDPNTRIVVGDKQIHGREEAHRVLQEFLKRADHIEEFRIHHLRVVGNKVESDTRLRGEIDGRDIDTRVHVHLLVIDGRLREINIQLE” the protease stability score was 1.57.
“DEEDKHLIDMFRILMRTIETGNEEETRKLMDPHTIIEIGDKRSHGWESWKKFIEDLERRFDHVRIEIEDVKVQGDKAIVRTRLKLIVGDKHFEHDTRIFVVMVNGRIHTFRVEID” gave a protease stability score of 1.48.
“SEDHELLKRELETFIKHLETGDEDILRRLADPHVRLEYNGKEFHGRDRIVEEWVRIAREIRIKVEIHHITYIGDKLEVDTILKIEQGDKRTEFRIEIFIQKVNGQWLLKEIKIK” gave a protease stability score of 1.44.
In the case of “SDEEKFFEKLLRDILHLWLTGDEDTFHQLLDPNMRSDVDGVDLHGRETVAKFLKERLKHLGIDHVQLESETAIGDKFFINTTISINGVETKMHLHFRVVNGVVHSLEVKVR”, the protease stability score was 1.26.
“SEEERSAIEFITRWIQAFETGDEDTLHKLADPNMKIWINGRELIGMQRFIRELQEEMTKRGVRIHIRIEDMRVFNGRLHTDGQFKLEVNGVDVFTTTYLLINKINGKWILEHVNIN” showed a protease stability score of 1.3.
For “SEEDKLAREIFEETIRILLTGDEEKLEELLDPRVRVHIHIGDKRIDLHGREEMSKWLHEIRIEHFHIDDLKVQGDKLHADTHEVVRIGDKRIETRTEWELVVVNGRLKELHIRVK”, the protease stability score was 1.74.
Work on “DELEQWVKHALEIWVRSLHTGDEDNLSELVDPNVRIDVNGQELHGRELVLHFLSHMRVHIIITRDREIQGNKAIMHLEVHHHQGDKEIHFRFDLIFHKYDGRWRLTEIRIE” yielded a protease stability score of 1.03.
“SEEERLYEHAWKLYIHDFITGDEKSHSRLADPHTQMIIGDKLLIGREEFVKWMKHLLDQVKNITVEHVKIRHEHYQGDKAHIDVEEEIHFNGQRHKRRVILTILKVNGRWSIESVEYT” showed a protease stability score of 0.898.
“SEEDEEVRHVLELLIHAWRTGDERLLMHLLDPHAKFIVGDKELHGREQISRVWKELRIEDSDVHSIELVNGRLRLDTHLIITIGDKHVDVKTRELIVKIDGRWVLEFLEVR” gave a protease stability score of 1.37.
For “DEIERESRKFFELWVHWYRTGNFEEIHKNLDPNARIEINGREIHGREDVLRLLEEIAKQFDHIEVELKDMHVQGDKMTIEGIIIFHFNGKRVEIHMIHIVLKINGQWFEHSQEYN”, the protease stability score was 0.626.
For “DELEENSRLALELWINSFLTGDEDTTEKMADPHVRLIIDGKLFHGREAFSEHMLERSLRADHTEVRLHDRKIVGDKLIIDTRIHSHVNGVDVTLNVLLIMHKYDGRWRIHSVEIH”, the protease stability score was 1.23.
“TEMEKRAEHWARLMVDRLKTGDEEVLRKMMDPNTRLEIDGREFIGREEILKSWEELGIKHIIFRHIDIEIVDGVVHVHLDLHVRIGEKDTKIELRVTNEKINGRWVIRSIHIHDI” showed a protease stability score of 1.69.
With “DEENDLMLEMAFKFMHDWLTGDFDKETKLADPDVKYDVGEFRFHGREEVTKWLEDMERSLGIDHQFLNIHDLKVQGDKVHIKGELVLIVNGRKETRRVDLHFEIVDGRMRKVTIEKR” the protease stability score was 1.
“SEDEKLMEHAFRQLLRDLETGDWHSFHHLADPTVKLDIDGREIHGRESATRVLEELWRKFGVTRVESELHSMHSQGDKLRVESKMNFNGVEYSVIIIMIKIDGRWLLHSENHK” showed a protease stability score of 1.56.
“SESEEDFRWFMHVLLKTFLTGDEDEFDSLIDPNVRLIVNGKDTHGWEVAVKFVRRFDHLDLYVRESEIQGDKVESDTELIVNFNGVSIKHKTRVIAEKVNGRWILREMRIG” showed a protease stability score of 1.44.
With “DEYWHHMKKSFEDLHDARHTGDERFVMEMLDPNVRFDINGVEFIGREDWRRHLQELGVDHEEIILHDYHIFNGRVELDVRTVHHIGDYELRRDEHMDLRKVNGRWHIKEIRVR” the protease stability score was 0.209.
With “HEEEELERTILELVLHYLKTGDEHFMKNMADPNARSTIGDKDLHGREWMSEVWKRIKNVRIEIDRVDMINGVVHLHITVEYNGRRTHLTLHAEKVDGRWIIRELRVE” the protease stability score was 1.61.
“HEDEEKVKNMVRHEIQALQTGDWDHWLNLADPHVKLYIDGRINHGRHVIRFLVERFDHFRIDHYEVRSINHVDGRVRVNTQLHGQETINGVHEKHTVEVEMTIIKVNGRWYIEHLELE” gave a protease stability score of 1.2.
In the case of “NEVEDEIKHLLEHLLHSHDTGDWHDLVRLADPNVRVNINGKHFHGREDVEEVIKRLGIKHIRIHHVEVQGDKIHIDGNMHFDGRVYETHIDAKKIDGRWIMHNLEVR”, the protease stability score was 1.4.
For “DEDERFFHEMLELWMHIYETGDWNRLHELFDPNALLLIGDKQVHGREKVTHYLFEMVHRADHSESRVRELHVIDGRVHIHLELHIDQGDKHLRIEIFLHAKKVNGRWVFTKLELR”, the protease stability score was 1.99.
For “DTEKYLYDFALRLHIHAHETGNFDQLIKNLDPHYRIDINGQIFHGREWVEREYKRAGIDKFELQHFEVKHEHVQGDFLIMDGKLEGNFNGVRINTRVEIYHEKFDGQWKIREVHHR”, the protease stability score was 0.185.
Work on “SEFENLQRLWLEILEHHSETGDERFMSRLADPNAKLLVNGKEFHGMEEVVEFIERLWEKFKNVRVEIHDFTVQGNKIDMDVILYYGEKVHRTEMHAVKYDGRWFMRELSIR” yielded a protease stability score of 1.38.
For “SEERERVRKIHEWLVRFLETGDEESFNHLADPNMRLIVWYNGVNIVFIGRESWREFLRLFREEMRLHRIRVHHVDVQGEKVTSDTRNDGEVNGQRTEFETHVEVVLINGRLKLVLLEFK”, the protease stability score was 2.33.
With “DEDTEVIERSITHWMKVLETGDWEDIERNADPNARMDINGREFHGREEVSRHLREDLDRLGIERVRVEIKHYRVQGEFIDIHGILRQGEYESKIHVRASKINGKWVLESLEVV” the protease stability score was 0.078.
For “DEEQRVEEEMAEMQRLWHETGDEESIQKNLDPRTRIVIHINGKEIRLHGREAWLKEVRRLGVKYLRIEDMEVVDGRVHARIHYTVNGVKIRIRVEFYIVDGRMEEIRRHWE”, the protease stability score was 0.432.
“SEDEHIADMVIKELQHILNTGDEDRLRDLMDPNTRFDINGRHIHGREDVAHWLAREVLEMRVEFHLEHWDIVDGRIHIHSNVLIIVGNKIIRIKTEILIIKIDGRWYVEELKFR” showed a protease stability score of 1.36.
“REEDHRSRHLSELWIHLWETGDEETMKKLADPNMRINVNGQEFHGREQATRHIHEFLEKFKNVRLHVENIRIQGEKILIISRAEVDGQELEIHIELIIVDGRIEEVNLHVYRR” gave a protease stability score of 1.46.
For “DEKEKDFHHMLEDWRWATRTGDEDTLKDLMDPNAKVRYGDYEFHGREHVIQFYQQIRFHEIHVHHVRVIGNKLEADTRVRIEYNGRELSFETHLVLLKIDGKWVMKIHEID”, the protease stability score was 2.13.
For “DETDEWAHKLMELILEYWLTGDWDLFNELADPNVKLIINGRESVGREEVREMLERTLKEIRLRRIEIDHVRIYDGRAQTHSRTDGDVNGKVTETHMHLHVLLINGRIRHVEIRLH”, the protease stability score was 2.02.
